Experiment [1] has as its target T1, Recombinant Human IL-13 (human, UniProt P35225 35-146, limits assumed). Description: cell-based or functional assay.
Experiment [2] deals with T1, Recombinant Human IL-13. Put plainly: SPR (Biacore). As for the experimental part: (§1) The BIACORE assay (Biacore, Inc, Piscataway, N.J.) determined the affinity of antibodies or DVD-Ig with kinetic measurements of on-rate and off-rate constants. Binding of antibodies or DVD-Ig proteins to a target antigen (for example, a purified recombinant target antigen) was determined by surface plasmon resonance-based measurements with a Biacore®1000 or 3000 instrument (Biacore® AB, Uppsala, Sweden) using running HBS-EP (10 mM HEPES [pH 7.4], 150 mM NaCl, 3 mM EDTA, and 0.005% surfactant P20) at 25° C. All chemicals were obtained from Biacore® AB (Uppsala, Sweden) or otherwise from a different source as described in the text. For example, approximately 5000 RU of goat anti-mouse IgG, (Fcγ), fragment specific polyclonal antibody (Pierce Biotechnology Inc, Rockford, Ill.) diluted in 10 mM sodium acetate (pH 4.5) was directly immobilized across a CM5 research grade biosensor chip using a standard amine coupling kit according to manufacturer's instructions and procedures at 25 μg/ml. Unreacted moieties on the biosensor surface were blocked with ethanolamine. Modified carboxymethyl dextran surface in flowcell 2 and 4 was used as a reaction surface. Unmodified carboxymethyl dextran without goat anti-mouse IgG in flow cell 1 and 3 was used as the reference surface. For kinetic analysis, rate equations derived from the 1:1 Langmuir binding model were fitted simultaneously to association and dissociation phases of all eight injections (using global fit analysis) with the use of Biaevaluation 4.0.1 software. Purified antibodies or DVD-Ig proteins were diluted in HEPES-buffered saline for capture across goat anti-mouse IgG specific reaction surfaces. Antibodies or DVD-Ig proteins to be captured as a ligand (25 μg/ml) were injected over reaction matrices at a flow rate of 5 μl/minute. The association and dissociation rate constants, kₒₙ (M⁻¹s⁻¹) and koff (s⁻¹) were determined under a continuous flow rate of 25 μl/minute. Rate constants were derived by making kinetic binding measurements at different antigen concentrations ranging from 10-200 nM. The equilibrium dissociation constant (M) of the reaction between antibodies or DVD-Ig proteins and the target antigen was then calculated from the kinetic rate constants by the following formula: KD=koff/kₒₙ. Binding was recorded as a function of time and kinetic rate constants were calculated.
On the technique in general: Surface plasmon resonance follows binding to a sensor surface in real time, without labels.

Experiment [3] concerns the target T2, Recombinant Human IL-17 (human, UniProt Q16552 20-155, limits assumed).
T2 construct: bought reagent; also called IL-17A
T2 sequence (looked up): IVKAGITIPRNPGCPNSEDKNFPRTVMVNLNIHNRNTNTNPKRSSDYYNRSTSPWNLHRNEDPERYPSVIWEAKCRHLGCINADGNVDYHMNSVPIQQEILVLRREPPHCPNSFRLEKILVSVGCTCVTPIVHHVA
Put plainly: SPR (Biacore). As for the experimental part: as §1

Experiment [4] has as its target T2, Recombinant Human IL-17. Description: cell-based or functional assay.

Consider seven molecules from US20130236458A1 (AbbVie / Abbott, published 2013).

Changes are numbered by the printed parent chain. Bounds are passed on as bounds.

A word on the Kd: it is the concentration at which binding is half-saturated. By koff is commonly meant the first-order rate constant of dissociation. A word on the kon: it is the second-order rate constant of association.

T1 sequence (P35225 35-146 limits assumed): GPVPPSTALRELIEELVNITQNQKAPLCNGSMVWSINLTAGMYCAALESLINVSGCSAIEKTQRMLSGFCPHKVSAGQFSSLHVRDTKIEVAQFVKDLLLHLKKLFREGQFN

B1: DVD2200 (bispecific antibody)
VH: EVQLVQSGAEVKKPGASVKVSCKASGYTFTSYWMHWVRQAPGQGLEWIGNINPKGGSNIYNEKFQGRVTMTRDTSISTAYMELSRLRSDDTAVYYCARLDYFGDSFDLWGQGTTVTVSSASTKGPSVFPLAPEVQLVQSGAEVKKPGESVKISCKASGGSFRSYGISWVRQAPGQGLEWMGGITHFFGITDYAQKFQGRVTITADESTTTAYMELSGLTSDDTAVYYCAREPNDFWNGYYDTHDFDSWGQGTTVTVSS
VL: DIQMTQSPSSLSASVGDRVTITCRASQGIRNYLNWYQQKPGKAPKLLIYYASNLEVGVPSRFSGSGSGTDYTLTISSLQPEDFATYYCQQDNRFPYTFGGGTKVEIKRTVAAPEIVLTQSPDFQSVTPKEKVTITCRASQNIGSELHWYQQKPDQSPKLLIKYASHSISGVPSRFSGSGSGTDFTLTINGLEAEDAATYYCHQSDTLPHTFGQGTKVDIKR
notes: DVD-Ig; also called DVD2200H; DVD2200L
B1: the “N-Terminal VD IL13 Neutralization Assay IC50” value with Recombinant Human IL-13 [1] stood at 0.096 nM. In the experiment with Recombinant Human IL-13 [2], the Kd was determined as 0.045 nM, the koff came out at 6e-05 s⁻¹ and the kon amounted to 1.3e+06 M⁻¹ s⁻¹. In the experiment with Recombinant Human IL-17 [3], the Kd was 0.025 nM, the koff is 4.6e-06 s⁻¹ and the kon turned out to be 180000 M⁻¹ s⁻¹. Also, the “C-Terminal VD IL17 Neutralization Assay IC50” value in the experiment with Recombinant Human IL-17 [4] turned out to be 0.0072 nM.

B2: DVD2155 (bispecific antibody)
VH: EVQLVQSGAEVKKPGSSVKVSCKASGGSFGGYGIGWVRQAPGQGLEWMGGITPFFGFADYAQKFQGRVTITADESTTTAYMELSGLTSDDTAVYYCARDPNEFWNGYYSTHDFDSWGQGTTVTVSSASTKGPEVTLRESGPGLVKPTQTLTLTCTLYGFSLSTSDMGVDWIRQPPGKGLEWLAHIWWDDVKRYNPALKSRLTISKDTSKNQVVLKLTSVDPVDTATYYCARTVSSGYIYYAMDYWGQGTLVTVSS
VL: EIVLTQSPDFQSVTPKEKVTITCRASQDIGSELHWYQQKPDQPPKLLIKYASHSTSGVPSRFSGSGSGTDFTLTINGLEAEDAGTYYCHQTDSLPYTFGPGTKVDIKRTVAAPDIQMTQSPSSLSASVGDRVTISCRASQDIRNYLNWYQQKPGKAPKLLIFYTSKLHSGVPSRFSGSGSGTDYTLTISSLQPEDIATYYCQQGLTPPLTFGGGTKVEIKR
notes: DVD-Ig; also called DVD2155H; DVD2155L
Turning to B2, in the experiment with Recombinant Human IL-13 [1], the “C-Terminal VD IL13 Neutralization Assay IC50” value was 1.18 nM. For the same molecule, in the experiment with Recombinant Human IL-13 [2], the Kd stood at 0.16 nM, the koff is 3.8e-05 s⁻¹ and the kon came out at 230000 M⁻¹ s⁻¹. Also, in the experiment with Recombinant Human IL-17 [3], the dissociation constant (Kd) was determined as 0.0026 nM, the koff stood at 6.9e-06 s⁻¹ and the kon stood at 2.7e+06 M⁻¹ s⁻¹. Moreover, the “N-Terminal VD IL17 Neutralization Assay IC50” value with Recombinant Human IL-17 [4] worked out at 0.0078 nM.

B3: DVD2157 (bispecific antibody)
VH: B2 VH
VL: EIVLTQSPDFQSVTPKEKVTITCRASQDIGSELHWYQQKPDQPPKLLIKYASHSTSGVPSRFSGSGSGTDFTLTINGLEAEDAGTYYCHQTDSLPYTFGPGTKVDIKRTVAAPSVFIFPPDIQMTQSPSSLSASVGDRVTISCRASQDIRNYLNWYQQKPGKAPKLLIFYTSKLHSGVPSRFSGSGSGTDYTLTISSLQPEDIATYYCQQGLTPPLTFGGGTKVEIKR
notes: DVD-Ig; also called DVD2157H; DVD2157L
As for B3, in the experiment with Recombinant Human IL-13 [1], the “C-Terminal VD IL13 Neutralization Assay IC50” value stood at 0.244 nM. In the experiment with Recombinant Human IL-13 [2], the Kd is 0.21 nM, the koff is 6.9e-05 s⁻¹ and the kon worked out at 330000 M⁻¹ s⁻¹. For the same molecule, in the experiment with Recombinant Human IL-17 [3], the Kd came out at 0.018 nM, the koff amounted to 2.6e-05 s⁻¹ and the kon was 1.5e+06 M⁻¹ s⁻¹. Moreover, in the experiment with Recombinant Human IL-17 [4], the “N-Terminal VD IL17 Neutralization Assay IC50” value amounted to 0.0066 nM.

B4: DVD2159 (bispecific antibody)
VH: EVQLVQSGAEVKKPGSSVKVSCKASGGSFGGYGIGWVRQAPGQGLEWMGGITPFFGFADYAQKFQGRVTITADESTTTAYMELSGLTSDDTAVYYCARDPNEFWNGYYSTHDFDSWGQGTTVTVSSASTKGPSVFPLAPEVTLRESGPGLVKPTQTLTLTCTLYGFSLSTSDMGVDWIRQPPGKGLEWLAHIWWDDVKRYNPALKSRLTISKDTSKNQVVLKLTSVDPVDTATYYCARTVSSGYIYYAMDYWGQGTLVTVSS
VL: B2 VL
notes: DVD-Ig; also called DVD2159H; DVD2159L
Regarding B4, the “C-Terminal VD IL13 Neutralization Assay IC50” value with Recombinant Human IL-13 [1] amounted to 0.876 nM. In the experiment with Recombinant Human IL-13 [2], the Kd came to 0.2 nM, the off-rate (koff) is 5.3e-05 s⁻¹ and the kon was 260000 M⁻¹ s⁻¹. Further, in the experiment with Recombinant Human IL-17 [3], the Kd was found to be 0.0049 nM, the koff turned out to be 1.2e-05 s⁻¹ and the kon came out at 2.5e+06 M⁻¹ s⁻¹. Moreover, the “N-Terminal VD IL17 Neutralization Assay IC50” value in the experiment with Recombinant Human IL-17 [4] stood at 0.0081 nM.

B5: DVD2161 (bispecific antibody)
VH: EVQLVQSGAEVKKPGESVKISCKASGGSFRSYGISWVRQAPGQGLEWMGGITHFFGITDYAQKFQGRVTITADESTTTAYMELSGLTSDDTAVYYCAREPNDFWNGYYDTHDFDSWGQGTTVTVSSASTKGPEVTLRESGPGLVKPTQTLTLTCTLYGFSLSTSDMGVDWIRQPPGKGLEWLAHIWWDDVKRYNPALKSRLTISKDTSKNQVVLKLTSVDPVDTATYYCARTVSSGYIYYAMDYWGQGTLVTVSS
VL: B2 VL with D28N, P43S, T55I, G84A, T91S, S93T, Y96H, P100Q
notes: DVD-Ig; also called DVD2161H; DVD2161L
On to B5, for which the “C-Terminal VD IL13 Neutralization Assay IC50” value with Recombinant Human IL-13 [1] was determined as 0.812 nM. In the experiment with Recombinant Human IL-13 [2], the Kd is 0.38 nM, the koff came to 4.1e-05 s⁻¹ and the kon was 110000 M⁻¹ s⁻¹. Further, in the experiment with Recombinant Human IL-17 [3], the Kd was 0.027 nM, the koff worked out at 4.5e-05 s⁻¹ and the kon is 1.6e+06 M⁻¹ s⁻¹. Further, in the experiment with Recombinant Human IL-17 [4], the “N-Terminal VD IL17 Neutralization Assay IC50” value was 0.0144 nM.

B6: DVD2158 (bispecific antibody)
VH: EVTLRESGPGLVKPTQTLTLTCTLYGFSLSTSDMGVDWIRQPPGKGLEWLAHIWWDDVKRYNPALKSRLTISKDTSKNQVVLKLTSVDPVDTATYYCARTVSSGYIYYAMDYWGQGTLVTVSSASTKGPSVFPLAPEVQLVQSGAEVKKPGSSVKVSCKASGGSFGGYGIGWVRQAPGQGLEWMGGITPFFGFADYAQKFQGRVTITADESTTTAYMELSGLTSDDTAVYYCARDPNEFWNGYYSTHDFDSWGQGTTVTVSS
VL: DIQMTQSPSSLSASVGDRVTISCRASQDIRNYLNWYQQKPGKAPKLLIFYTSKLHSGVPSRFSGSGSGTDYTLTISSLQPEDIATYYCQQGLTPPLTFGGGTKVEIKRTVAAPEIVLTQSPDFQSVTPKEKVTITCRASQDIGSELHWYQQKPDQPPKLLIKYASHSTSGVPSRFSGSGSGTDFTLTINGLEAEDAGTYYCHQTDSLPYTFGPGTKVDIKR
notes: DVD-Ig; also called DVD2158H; DVD2158L
On to B6, for which, in the experiment with Recombinant Human IL-13 [1], the “N-Terminal VD IL13 Neutralization Assay IC50” value is 0.131 nM. In addition, in the experiment with Recombinant Human IL-13 [2], the Kd worked out at 0.086 nM, the koff amounted to 0.00014 s⁻¹ and the kon was 1.6e+06 M⁻¹ s⁻¹. Besides, in the experiment with Recombinant Human IL-17 [3], the Kd was below 0.05 nM, the koff is below 1e-06 s⁻¹ and the kon was determined as 20000 M⁻¹ s⁻¹. Besides, the “C-Terminal VD IL17 Neutralization Assay IC50” value with Recombinant Human IL-17 [4] came to 0.0998 nM.

B7: DVD2201 (bispecific antibody)
VH: EVQLVQSGAEVKKPGESVKISCKASGGSFRSYGISWVRQAPGQGLEWMGGITHFFGITDYAQKFQGRVTITADESTTTAYMELSGLTSDDTAVYYCAREPNDFWNGYYDTHDFDSWGQGTTVTVSSASTKGPSVFPLAPEVQLVQSGAEVKKPGASVKVSCKASGYTFTSYWMHWVRQAPGQGLEWIGNINPKGGSNIYNEKFQGRVTMTRDTSISTAYMELSRLRSDDTAVYYCARLDYFGDSFDLWGQGTTVTVSS
VL: EIVLTQSPDFQSVTPKEKVTITCRASQNIGSELHWYQQKPDQSPKLLIKYASHSISGVPSRFSGSGSGTDFTLTINGLEAEDAATYYCHQSDTLPHTFGQGTKVDIKRTVAAPDIQMTQSPSSLSASVGDRVTITCRASQGIRNYLNWYQQKPGKAPKLLIYYASNLEVGVPSRFSGSGSGTDYTLTISSLQPEDFATYYCQQDNRFPYTFGGGTKVEIKR
notes: DVD-Ig; also called DVD2201H; DVD2201L
As to B7, the “C-Terminal VD IL13 Neutralization Assay IC50” value with Recombinant Human IL-13 [1] stood at 0.092 nM. Also, in the experiment with Recombinant Human IL-13 [2], the Kd came out at 0.024 nM, the koff came to 5.7e-05 s⁻¹ and the kon amounted to 2.4e+06 M⁻¹ s⁻¹. Further, in the experiment with Recombinant Human IL-17 [3], the Kd worked out at 0.04 nM, the koff turned out to be 6.3e-05 s⁻¹ and the kon was 1.6e+06 M⁻¹ s⁻¹. Moreover, the “N-Terminal VD IL17 Neutralization Assay IC50” value in the experiment with Recombinant Human IL-17 [4] was 0.0116 nM.
